Experiment [1] concerns the target T1, BCMA-Fc antigen (R&D Systems) (UniProt Q02223 1-54).
T1 construct: also called BCMA fc fusion protein (R&D Systems, cat #193-BC-050); recombinant BCMA-Fc; not shown: Fc portion of the bought fusion protein
T1 sequence (looked up): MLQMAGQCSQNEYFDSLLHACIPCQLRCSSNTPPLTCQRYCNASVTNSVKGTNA
The experiment can be described thus: flow cytometry; BCMA-Fc staining of CAR-transduced JNL cells. On the procedure: Jurkat-NFAT-luciferase (JNL) cells transduced with BCMA CAR constructs were evaluated for activation in response to BCMA-expressing target cell lines. Small-scale viral supernatant samples were generated in HEK293T cells for transduction of JNL cells. On Day 3 following transduction, BCMA CAR-transduced JNL cells were incubated with target cells at an effector-to-target (E:T) ratio of 6:1. Target cell lines were: K562-BCMA (engineered to stably express BCMA), K562 (parental line), and BCMA positive multiple myeloma cell lines, NCI-H929 and RPMI 8226. JNL activation was measured using Bright-Glo substrate (Promega) on Day 4. CAR expression on transduced JNL was assessed on Day 7 with BCMA-Fc antigen and Biotin-Protein L reagent (Table 21).

Experiment [2] concerns the target T2, human BCMA (B-cell maturation antigen) on cells (human, UniProt Q02223 1-184).
T2 sequence (looked up): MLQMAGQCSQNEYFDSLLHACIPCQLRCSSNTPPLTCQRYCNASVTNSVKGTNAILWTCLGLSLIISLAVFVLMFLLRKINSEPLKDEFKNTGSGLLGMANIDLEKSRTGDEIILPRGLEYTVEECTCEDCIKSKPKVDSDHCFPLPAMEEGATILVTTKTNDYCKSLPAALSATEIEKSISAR
Briefly: cell-based or functional assay.

B1: BCMA-3 CAR (139102) (other)
chain: QVQLVQSGAEVKKPGASVKVSCKASGYTFSNYGITWVRQAPGQGLEWMGWISAYNGNTNYAQKFQGRVTMTRNTSISTAYMELSSLRSEDTAVYYCARGPYYYYMDVWGKGTMVTVSSASGGGGSGGRASGGGGSEIVMTQSPLSLPVTPGEPASISCRSSQSLLYSNGYNYVDWYLQKPGQSPQLLIYLGSNRASGVPDRFSGSGSGTDFKLQISRVEAEDVGIYYCMQGRQFPYSFGQGTKVEIKTTTPAPRPPTPAPTIASQPLSLRPEACRPAAGGAVHTRGLDFACDIYIWAPLAGTCGVLLLSLVITLYCKRGRKKLLYIFKQPFMRPVQTTQEEDGCSCRFPEEEEGGCELRVKFSRSADAPAYKQGQNQLYNELNLGRREEYDVLDKRRGRDPEMGGKPRRKNPQEGLYNELQKDKMAEAYSEIGMKGERRRGKGHDGLYQGLSTATKDTYDALHMQALPPR
notes: Chimeric antigen receptor; also called KR98-03KA
On to B1, for which the “% CAR+ (BCMA-Fc detection)” value in experiment [1] was determined as 0%.

B2: BCMA-4NP tool CAR (other)
chain: QVQLVQSGAEVKKPGSSVKVSCKASGGTFSNYWMHWVRQAPGQGLEWMGATYRGHSDTYYNQKFKGRVTITADKSTSTAYMELSSLRSEDTAVYYCARGAIYNGYDVLDNWGQGTLVTVSSGGGGSGGGGSGGGGSGGGGSDIQMTQSPSSLSASVGDRVTITCSASQDISNYLNWYQQKPGKAPKLLIYYTSNLHSGVPSRFSGSGSGTDFTLTISSLQPEDFATYYCQQYRKLPWTFGQGTKLEIKR
As for B2, the “% CAR+ (BCMA-Fc detection)” value in experiment [1] came out at 28.3%.

B3: BCMA-11 CAR (139110) (other)
chain: QVQLVQSGGGLVKPGGSLRLSCAASGFTFSDYYMSWIRQAPGKGLEWVSYISSSGNTIYYADSVKGRFTISRDNAKNSLYLQMNSLRAEDTAVYYCARSTMVREDYWGQGTLVTVSSASGGGGSGGRASGGGGSDIVLTQSPLSLPVTLGQPASISCKSSESLVHNSGKTYLNWFHQRPGQSPRRLIYEVSNRDSGVPDRFTGSGSGTDFTLKISRVEAEDVGVYYCMQGTHWPGTFGQGTKLEIKTTTPAPRPPTPAPTIASQPLSLRPEACRPAAGGAVHTRGLDFACDIYIWAPLAGTCGVLLLSLVITLYCKRGRKKLLYIFKQPFMRPVQTTQEEDGCSCRFPEEEEGGCELRVKFSRSADAPAYKQGQNQLYNELNLGRREEYDVLDKRRGRDPEMGGKPRRKNPQEGLYNELQKDKMAEAYSEIGMKGERRRGKGHDGLYQGLSTATKDTYDALHMQALPPR
notes: also called UG65-93FB
B3: the “% CAR+ (BCMA-Fc detection)” value in experiment [1] turned out to be 42.7%.

B4: BCMA-2 CAR (139101) (other)
chain: QVQLQESGGGLVQPGGSLRLSCAASGFTFSSDAMTWVRQAPGKGLEWVSVISGSGGTTYYADSVKGRFTISRDNSKNTLYLQMNSLRAEDTAVYYCAKLDSSGYYYARGPRYWGQGTLVTVSSASGGGGSGGRASGGGGSDIQLTQSPSSLSASVGDRVTITCRASQSISSYLNWYQQKPGKAPKLLIYGASTLASGVPARFSGSGSGTHFTLTINSLQSEDSATYYCQQSYKRASFGQGTKVEIKTTTPAPRPPTPAPTIASQPLSLRPEACRPAAGGAVHTRGLDFACDIYIWAPLAGTCGVLLLSLVITLYCKRGRKKLLYIFKQPFMRPVQTTQEEDGCSCRFPEEEEGGCELRVKFSRSADAPAYKQGQNQLYNELNLGRREEYDVLDKRRGRDPEMGGKPRRKNPQEGLYNELQKDKMAEAYSEIGMKGERRRGKGHDGLYQGLSTATKDTYDALHMQALPPR
notes: also called UR96-08PA
With B4, the “% CAR+ (BCMA-Fc detection)” value in experiment [1] was determined as 32%.

B5: BCMA-5 CAR (139104) (other)
chain: EVQLLETGGGLVQPGGSLRLSCAVSGFALSNHGMSWVRRAPGKGLEWVSGIVYSGSTYYAASVKGRFTISRDNSRNTLYLQMNSLRPEDTAIYYCSAHGGESDVWGQGTTVTVSSASGGGGSGGRASGGGGSEIVLTQSPATLSVSPGESATLSCRASQSVSSNLAWYQQKPGQAPRLLIYGASTRASGIPDRFSGSGSGTDFTLTISSLQAEDVAVYYCQQYGSSLTFGGGTKVEIKTTTPAPRPPTPAPTIASQPLSLRPEACRPAAGGAVHTRGLDFACDIYIWAPLAGTCGVLLLSLVITLYCKRGRKKLLYIFKQPFMRPVQTTQEEDGCSCRFPEEEEGGCELRVKFSRSADAPAYKQGQNQLYNELNLGRREEYDVLDKRRGRDPEMGGKPRRKNPQEGLYNELQKDKMAEAYSEIGMKGERRRGKGHDGLYQGLSTATKDTYDALHMQALPPR
notes: also called AR99-08FA
For B5, the “% CAR+ (BCMA-Fc detection)” value in experiment [1] was 28.9%. Further, in experiment [2], the “JNL binding assay, ratio to K562; K562-BCMA” value was 2.34 ratio; the “JNL binding assay, ratio to K562; NCI-H929” value is 2.34 ratio; the “JNL binding assay, ratio to K562; RPMI 8226” value was 2.4 ratio; the “Proliferation CD3, ratio to no target; K562-BCMA” value was 1.62 ratio. In experiment [2], the “Proliferation CD3, ratio to no target; KMS11-luc” value was found to be 1.61 ratio; the “Proliferation CD3, ratio to no target; NCI-H929” value is 1.72 ratio; the “Proliferation CD3, ratio to no target; RPMI 8226” value is 1.73 ratio; the “Proliferation CD4, ratio to no target; K562-BCMA” value stood at 2.19 ratio. Also, in experiment [2], the “Proliferation CD4, ratio to no target; KMS11-luc” value turned out to be 1.9 ratio; the “Proliferation CD4, ratio to no target; NCI-H929” value was 2.23 ratio; the “Proliferation CD4, ratio to no target; RPMI 8226” value was found to be 2.15 ratio; the “Proliferation CD8, ratio to no target; K562-BCMA” value amounted to 0.99 ratio. Moreover, in experiment [2], the “Proliferation CD8, ratio to no target; KMS11-luc” value was found to be 1.27 ratio; the “Proliferation CD8, ratio to no target; NCI-H929” value stood at 1.11 ratio; the “Proliferation CD8, ratio to no target; RPMI 8226” value came out at 1.25 ratio.

B6: BCMA-4 CAR (139103) (other)
chain: QVQLVESGGGLVQPGRSLRLSCAASGFTFSNYAMSWVRQAPGKGLGWVSGISRSGENTYYADSVKGRFTISRDNSKNTLYLQMNSLRDEDTAVYYCARSPAHYYGGMDVWGQGTTVTVSSASGGGGSGGRASGGGGSDIVLTQSPGTLSLSPGERATLSCRASQSISSSFLAWYQQKPGQAPRLLIYGASRRATGIPDRFSGSGSGTDFTLTISRLEPEDSAVYYCQQYHSSPSWTFGQGTKLEIKTTTPAPRPPTPAPTIASQPLSLRPEACRPAAGGAVHTRGLDFACDIYIWAPLAGTCGVLLLSLVITLYCKRGRKKLLYIFKQPFMRPVQTTQEEDGCSCRFPEEEEGGCELRVKFSRSADAPAYKQGQNQLYNELNLGRREEYDVLDKRRGRDPEMGGKPRRKNPQEGLYNELQKDKMAEAYSEIGMKGERRRGKGHDGLYQGLSTATKDTYDALHMQALPPR
notes: also called B4; JF32-78IB
In the case of B6, the “% CAR+ (BCMA-Fc detection)” value in experiment [1] is 49.5%. Also, in experiment [2], the “JNL binding assay, ratio to K562; K562-BCMA” value is 4.47 ratio; the “JNL binding assay, ratio to K562; NCI-H929” value was 3.31 ratio; the “JNL binding assay, ratio to K562; RPMI 8226” value was 6.25 ratio; the “Proliferation CD3, ratio to no target; K562-BCMA” value was found to be 7.37 ratio. Besides, in experiment [2], the “Proliferation CD3, ratio to no target; KMS11-luc” value is 8.63 ratio; the “Proliferation CD3, ratio to no target; NCI-H929” value was found to be 8.64 ratio; the “Proliferation CD3, ratio to no target; RPMI 8226” value was found to be 8.14 ratio; the “Proliferation CD4, ratio to no target; K562-BCMA” value was 9.21 ratio. Also, in experiment [2], the “Proliferation CD4, ratio to no target; KMS11-luc” value was determined as 8.6 ratio; the “Proliferation CD4, ratio to no target; NCI-H929” value worked out at 9.86 ratio; the “Proliferation CD4, ratio to no target; RPMI 8226” value was 10.1 ratio; the “Proliferation CD8, ratio to no target; K562-BCMA” value was found to be 5.66 ratio. Also, in experiment [2], the “Proliferation CD8, ratio to no target; KMS11-luc” value worked out at 8.74 ratio; the “Proliferation CD8, ratio to no target; NCI-H929” value stood at 7.42 ratio; the “Proliferation CD8, ratio to no target; RPMI 8226” value turned out to be 6.19 ratio.

B7: BCMA-7 CAR (139106) (other)
chain: EVQLVETGGGLVQPGGSLRLSCAVSGFALSNHGMSWVRRAPGKGLEWVSGIVYSGSTYYAASVKGRFTISRDNSRNTLYLQMNSLRPEDTAIYYCSAHGGESDVWGQGTTVTVSSASGGGGSGGRASGGGGSEIVMTQSPATLSVSPGERATLSCRASQSVSSKLAWYQQKPGQAPRLLMYGASIRATGIPDRFSGSGSGTEFTLTISSLEPEDFAVYYCQQYGSSSWTFGQGTKVEIKTTTPAPRPPTPAPTIASQPLSLRPEACRPAAGGAVHTRGLDFACDIYIWAPLAGTCGVLLLSLVITLYCKRGRKKLLYIFKQPFMRPVQTTQEEDGCSCRFPEEEEGGCELRVKFSRSADAPAYKQGQNQLYNELNLGRREEYDVLDKRRGRDPEMGGKPRRKNPQEGLYNELQKDKMAEAYSEIGMKGERRRGKGHDGLYQGLSTATKDTYDALHMQALPPR
notes: also called QR91-12ZA
On to B7, for which the “% CAR+ (BCMA-Fc detection)” value in experiment [1] is 30.4%. Also, in experiment [2], the “JNL binding assay, ratio to K562; K562-BCMA” value came out at 2.55 ratio; the “JNL binding assay, ratio to K562; NCI-H929” value is 2.36 ratio; the “JNL binding assay, ratio to K562; RPMI 8226” value was 2.77 ratio; the “Proliferation CD3, ratio to no target; K562-BCMA” value was determined as 1.72 ratio. Also, in experiment [2], the “Proliferation CD3, ratio to no target; KMS11-luc” value amounted to 1.71 ratio; the “Proliferation CD3, ratio to no target; NCI-H929” value came out at 1.8 ratio; the “Proliferation CD3, ratio to no target; RPMI 8226” value is 1.62 ratio; the “Proliferation CD4, ratio to no target; K562-BCMA” value is 2.17 ratio. Besides, in experiment [2], the “Proliferation CD4, ratio to no target; KMS11-luc” value was found to be 1.96 ratio; the “Proliferation CD4, ratio to no target; NCI-H929” value was 2.23 ratio; the “Proliferation CD4, ratio to no target; RPMI 8226” value was determined as 1.91 ratio; the “Proliferation CD8, ratio to no target; K562-BCMA” value came to 1.08 ratio. In experiment [2], the “Proliferation CD8, ratio to no target; KMS11-luc” value is 1.35 ratio; the “Proliferation CD8, ratio to no target; NCI-H929” value came out at 1.18 ratio; the “Proliferation CD8, ratio to no target; RPMI 8226” value came to 1.19 ratio.

These data come from patent US20220064316A1 (published 2022).
